# CN112279913A (TAIZHOU BAIYING BIOLOGICAL TECH CO LTD, dated 2021)
# Target: T1, 人IL-6重组蛋白 (human, UniProt P05231 30-212, limits assumed)
# T1 construct: also called 白细胞介素-6; 白介素6
# Experiment: indirect ELISA, IL-6 recombinant protein coated at 2 μg/ml, purified antibody from 10 μg/ml in 3-fold dilutions, HRP goat anti-mouse IgG
row,EC50 [µg/mL],Binder
1,< 0.025,"抗人IL-6单克隆抗体 克隆019:8-3F8 (antibody, V domains shown) VH: EVKLEESGGGLVQPGGSMKLSCAASGFTFSNYWMNWVRQSPEKGLEWVAEIRLRSNKYATHYAESVRGRFTISRDDSINYVYLQMNNLRAEDTGIYYCTRPRYEGTFDVWGAGTTVTVSS VL: not shown"
2,< 0.025,"抗人IL-6单克隆抗体 克隆019:1-2H3 (antibody, V domains shown) VH: QVQLQQSGPQLVRPGASVKISCKASGYSFNRSWMHWVKQRPGQGLEWIGMIDPSDTETRLNQKFKDKATLTVDESSSTAHMQFKRPTSEDSAVYYCARAYGFSIEFAYWGQGTLVTVSA VL: DIQMSQTSSSLPASLGDRVTISCKASQDIRSYLNWYQQKPDGTVKLLIYYTSRLHSGVPSRFSGSGSGTDFSLTISNLEQEDIATYFCQQGATLPLTFGAGTKLELK"
